The values that follow are results of earlier work, collected in PMC1991591.

The target of this data set is Fus3 (Saccharomyces cerevisiae) (UniProt P16892).
UniProt P16892, sequence (P16892 whole entry): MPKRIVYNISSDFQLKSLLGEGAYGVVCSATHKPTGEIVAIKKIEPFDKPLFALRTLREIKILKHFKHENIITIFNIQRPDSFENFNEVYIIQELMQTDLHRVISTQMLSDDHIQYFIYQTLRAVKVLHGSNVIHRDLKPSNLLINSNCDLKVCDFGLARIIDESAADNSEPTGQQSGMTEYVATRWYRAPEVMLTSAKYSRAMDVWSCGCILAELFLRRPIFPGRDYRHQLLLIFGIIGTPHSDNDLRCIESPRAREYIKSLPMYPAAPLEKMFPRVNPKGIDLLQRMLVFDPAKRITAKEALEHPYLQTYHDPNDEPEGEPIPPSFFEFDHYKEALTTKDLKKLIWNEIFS

Broadly, the Kd is the free concentration of one partner at which half of the binding sites on the other are occupied at equilibrium, for simple one-to-one binding. As for Ste5 (from UniProt P32917), the Kd was 1000 nM.
